Targets include AnkG exZZUD (rat) (UniProt O70511); AnkB exZZU F968A (human); AnkB exZZU I964Q (human).
Holding throughout (assay): ITC
For orientation: ITC needs no label: the signal is the heat of the interaction.

Assay [1] addresses AnkB exZZU (extension-ZU5N-ZU5C-UPA, aa 951-1443) (human).
The target in assay [2] is AnkB ZU5N-ZU5C-UPA-DD tandem (ZZUD, aa 966-1535) (human).
For assay [3], the target named is AnkB exZZU R1029E (human).
Assay [4] deals with AnkB exZZU T1324D (human).

This note sets out measurements from paper doi:10.1101/2020.03.04.976142.

Chain of UniProt O70511 (O70511 whole entry): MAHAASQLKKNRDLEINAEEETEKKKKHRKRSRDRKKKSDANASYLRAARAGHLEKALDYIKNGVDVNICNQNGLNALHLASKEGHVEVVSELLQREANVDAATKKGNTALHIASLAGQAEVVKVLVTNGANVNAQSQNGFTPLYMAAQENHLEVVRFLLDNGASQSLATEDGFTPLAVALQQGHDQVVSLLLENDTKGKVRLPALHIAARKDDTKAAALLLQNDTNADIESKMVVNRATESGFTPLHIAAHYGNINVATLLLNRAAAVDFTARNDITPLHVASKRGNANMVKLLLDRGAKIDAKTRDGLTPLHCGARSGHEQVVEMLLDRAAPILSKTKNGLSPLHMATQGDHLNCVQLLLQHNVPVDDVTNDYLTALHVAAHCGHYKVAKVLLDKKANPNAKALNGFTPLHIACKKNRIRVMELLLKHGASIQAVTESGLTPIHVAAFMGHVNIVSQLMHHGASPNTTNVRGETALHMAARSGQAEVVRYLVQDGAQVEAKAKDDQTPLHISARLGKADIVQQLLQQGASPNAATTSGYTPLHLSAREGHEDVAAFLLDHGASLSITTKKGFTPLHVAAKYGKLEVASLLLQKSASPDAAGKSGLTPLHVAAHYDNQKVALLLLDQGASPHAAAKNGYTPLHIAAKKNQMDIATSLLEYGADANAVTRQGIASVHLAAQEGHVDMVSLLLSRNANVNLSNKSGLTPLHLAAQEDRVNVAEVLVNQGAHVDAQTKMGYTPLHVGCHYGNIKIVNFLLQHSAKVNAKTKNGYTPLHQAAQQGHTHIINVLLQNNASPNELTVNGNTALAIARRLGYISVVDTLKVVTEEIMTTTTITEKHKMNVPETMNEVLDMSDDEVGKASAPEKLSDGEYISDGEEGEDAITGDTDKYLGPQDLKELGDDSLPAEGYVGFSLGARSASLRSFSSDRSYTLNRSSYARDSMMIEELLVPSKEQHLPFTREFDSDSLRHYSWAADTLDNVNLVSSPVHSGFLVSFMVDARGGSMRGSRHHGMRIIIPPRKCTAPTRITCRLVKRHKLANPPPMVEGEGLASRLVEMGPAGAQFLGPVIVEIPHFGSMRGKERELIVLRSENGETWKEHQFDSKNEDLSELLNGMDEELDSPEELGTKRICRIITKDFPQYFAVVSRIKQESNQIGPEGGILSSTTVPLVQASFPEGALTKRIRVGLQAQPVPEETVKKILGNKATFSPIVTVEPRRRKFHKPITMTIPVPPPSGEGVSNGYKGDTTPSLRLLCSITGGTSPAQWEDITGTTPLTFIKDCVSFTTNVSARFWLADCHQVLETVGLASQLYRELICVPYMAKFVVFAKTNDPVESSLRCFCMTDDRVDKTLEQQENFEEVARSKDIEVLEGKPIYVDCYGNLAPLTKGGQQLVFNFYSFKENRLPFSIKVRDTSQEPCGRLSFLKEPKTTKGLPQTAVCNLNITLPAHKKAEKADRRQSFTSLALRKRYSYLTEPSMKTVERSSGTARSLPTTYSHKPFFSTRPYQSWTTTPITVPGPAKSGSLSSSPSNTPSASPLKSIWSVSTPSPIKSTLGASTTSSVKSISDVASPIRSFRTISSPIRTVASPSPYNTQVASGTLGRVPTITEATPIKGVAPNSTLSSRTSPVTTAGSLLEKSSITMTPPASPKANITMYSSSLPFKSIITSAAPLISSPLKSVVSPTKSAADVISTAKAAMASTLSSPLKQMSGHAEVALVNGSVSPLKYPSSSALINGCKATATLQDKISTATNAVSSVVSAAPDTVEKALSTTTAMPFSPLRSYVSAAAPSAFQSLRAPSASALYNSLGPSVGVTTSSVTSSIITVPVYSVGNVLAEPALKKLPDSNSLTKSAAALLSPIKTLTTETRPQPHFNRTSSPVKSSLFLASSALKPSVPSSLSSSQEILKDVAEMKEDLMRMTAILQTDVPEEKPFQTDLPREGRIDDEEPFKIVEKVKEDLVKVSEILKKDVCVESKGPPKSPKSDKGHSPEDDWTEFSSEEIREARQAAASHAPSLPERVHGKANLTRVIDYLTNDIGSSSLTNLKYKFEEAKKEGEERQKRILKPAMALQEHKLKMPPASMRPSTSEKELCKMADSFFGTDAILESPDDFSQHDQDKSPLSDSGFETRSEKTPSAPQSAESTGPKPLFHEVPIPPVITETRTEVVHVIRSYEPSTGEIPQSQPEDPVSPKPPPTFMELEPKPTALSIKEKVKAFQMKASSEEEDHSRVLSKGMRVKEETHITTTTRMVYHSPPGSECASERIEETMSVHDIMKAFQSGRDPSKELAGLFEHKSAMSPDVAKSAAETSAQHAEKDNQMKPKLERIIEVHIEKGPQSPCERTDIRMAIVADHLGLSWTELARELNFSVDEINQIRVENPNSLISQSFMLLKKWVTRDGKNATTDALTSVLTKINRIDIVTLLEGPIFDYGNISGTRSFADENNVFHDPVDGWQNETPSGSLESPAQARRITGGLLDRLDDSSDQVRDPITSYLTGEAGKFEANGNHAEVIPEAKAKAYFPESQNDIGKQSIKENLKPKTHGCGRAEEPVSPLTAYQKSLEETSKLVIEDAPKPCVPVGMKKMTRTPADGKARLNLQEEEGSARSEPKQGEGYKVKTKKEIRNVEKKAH

As for “β2-spectrin R13-16 (from UniProt Q62261 1-2363) (domain or fragment)”, in the assay with AnkG exZZUD (rat), the fold stronger binding than AnkG ZZUD without the extension is > 10 fold.
Turning to “β2-spectrin spectrin repeats 13-15 (R13-15) (domain or fragment)”, the figures for the fold decrease of binding against wild-type AnkB exZZU (in the assay with AnkB exZZU F968A (human); with AnkB exZZU I964Q (human); in assay [3]) were > 10 fold, 4 fold and 5 fold, respectively. Moreover, the Kd in assay [1] amounted to 200 nM; in assay [2], 4900 nM.
Turning to “β4-spectrin spectrin repeats 13-15 (R13-15) (domain or fragment)”, in assay [4], the fold decrease of binding against wild-type AnkB exZZU turned out to be 5 fold.

As a reminder, the Kd is a measure of binding affinity in units of concentration. Read a high Kd as weaker binding.
